Data taken from patent US20160185837A1 (Medimmune Limited, priority 2013, published 2016).
pEC50: −log10 of the molar value. Where two headings read alike, the source gives them in different places.

Experiments:
Format in all cases: cell-based
[1] = target: T1, human GLP-1 receptor (hGLP-1r) (Homo sapiens, UniProt P43220); assay: BSA-cAMP assay, cells expressing human GLP-1 receptor; conditions: BSA-cAMP assay, read-out: hGLP1r cAMP activity EC50
T1 construct: expressed in transfected cells
Experimental: (§1) One basic cAMP assays was performed, differing in the medium used for the assay, the “BSA-cAMP assay”:
(§2) BSA-based assay medium: 0.1% bovine serum albumin (BSA) in
(§3) In certain aspects, the assay can also be carried out in medium supplemented with serum albumin that corresponds to the receptor being tested, e.g., human serum albumin for testing cAMP activity at hGIPr or hGLP-1r, rat serum albumin for testing cAMP activity at rGIPr or rGLP-1r, and so on. […] All sample dilutions were made in duplicate.
(§4) A frozen cryo-vial of cells expressing the receptor of interest was thawed rapidly in a water-bath, transferred to pre-warmed assay media and spun at 240×g for 5 minutes. Cells were re-suspended in assay buffer at an optimized concentration (e.g., hGLP-1r and hGIPr cells at 0.5×10^5 cells/ml).
(§5) To this, 5 μL cell suspension was added and the plates incubated at room temperature for 30 minutes.
(§6) cAMP levels were measured using a commercially available cAMP dynamic 2 HTRF kit (Cisbio, Cat #62AM4PEJ), following the two step protocol as per manufacturer's recommendations. In brief; anti-cAMP cryptate (donor fluorophore) and cAMP-d2 (acceptor fluorophore) were made up separately by diluting each 1/20 in conjugate & lysis buffer provided in the kit. 5 μL anti-cAMP cryptate was added to all wells of the assay plate, and 5 μL cAMP-d2 added to all wells except non-specific binding (NSB) wells, to which conjugate and lysis buffer was added. […] Data was transformed to % Delta F as described in manufacturer's guidelines and then transformed to percent activation of maximal native agonist response and analysed by 4-parameter logistic fit to determine EC50 values.
(§7) We used unconstrained 4 parameter logistic fit of data, curve mid-point to determine EC50. This was tested on two occasions, not two batches.

[2] = target: T2, human GIP receptor (hGIPr) (Homo sapiens, UniProt P48546); assay: BSA-cAMP assay, cells expressing human GIP receptor; conditions: Batch 1; BSA-cAMP assay; read-out: hGIPr cAMP activity EC50
T2 construct: expressed in transfected cells
T2 sequence (P48546 22-466): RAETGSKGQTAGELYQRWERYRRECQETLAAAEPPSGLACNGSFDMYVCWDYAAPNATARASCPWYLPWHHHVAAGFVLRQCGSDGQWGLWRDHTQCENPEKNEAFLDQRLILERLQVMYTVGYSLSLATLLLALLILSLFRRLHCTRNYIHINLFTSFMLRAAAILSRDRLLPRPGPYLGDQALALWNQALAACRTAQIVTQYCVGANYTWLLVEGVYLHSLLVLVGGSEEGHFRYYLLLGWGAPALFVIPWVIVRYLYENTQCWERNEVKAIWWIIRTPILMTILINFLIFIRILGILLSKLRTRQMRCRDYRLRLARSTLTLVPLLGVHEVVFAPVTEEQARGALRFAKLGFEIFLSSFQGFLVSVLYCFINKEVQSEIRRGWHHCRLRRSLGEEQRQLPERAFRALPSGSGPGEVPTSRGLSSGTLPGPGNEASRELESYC
Experimental: For human GIPr, two different lines were used, shown as “hGIPr” and “hGIPr (C3)” in Table 11.
as §1, §2, §3, §4, §5, §6, §7

[3] = target: T3, human glucagon receptor (GCGr) (Homo sapiens, UniProt P47871); assay: BSA-cAMP assay, cells expressing human glucagon receptor
T3 construct: expressed in transfected cells; host or cells: HEK293s or CHO cells
Experimental: as §1, §2, §3, §4, §5, §6, §7

[4] = target: T4, mouse GLP-1 receptor (mGLP-1r) (Mus musculus, UniProt O35659); assay: BSA-cAMP assay, cells expressing mouse GLP-1 receptor; conditions: Batch 1; BSA-cAMP assay; read-out: mGLP1r cAMP activity EC50
T4 construct: expressed in transfected cells; host or cells: HEK293s or CHO cells
T4 sequence (O35659 22-463): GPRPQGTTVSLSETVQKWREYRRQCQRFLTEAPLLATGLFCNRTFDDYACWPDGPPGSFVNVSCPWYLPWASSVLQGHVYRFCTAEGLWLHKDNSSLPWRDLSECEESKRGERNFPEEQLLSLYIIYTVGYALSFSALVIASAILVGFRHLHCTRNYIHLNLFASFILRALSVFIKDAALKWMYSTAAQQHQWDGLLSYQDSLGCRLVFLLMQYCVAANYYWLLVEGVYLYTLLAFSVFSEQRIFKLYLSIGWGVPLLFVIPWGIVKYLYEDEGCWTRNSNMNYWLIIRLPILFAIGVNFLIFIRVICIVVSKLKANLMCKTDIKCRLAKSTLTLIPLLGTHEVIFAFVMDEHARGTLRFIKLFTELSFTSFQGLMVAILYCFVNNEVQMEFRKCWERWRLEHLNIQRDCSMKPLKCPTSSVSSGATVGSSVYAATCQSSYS
Experimental: as §1, §2, §3, §4, §5, §6, §7
(§8) In order to be able to carry out in vivo studies in rodents, IP088 was tested for potency against the mouse receptors mGIPr and mGLP-1r as well as the rat receptors rGIPr and rGLP-1r, using cells expressing the respective receptors in the cAMP assay described above.

[5] = target: T5, mouse GIP receptor (mGIPr) (Mus musculus, UniProt Q0P543); assay: BSA-cAMP assay, cells expressing mouse GIP receptor; conditions: Batch 1; BSA-cAMP assay; read-out: mGIPr cAMP activity EC50
T5 construct: expressed in transfected cells; host or cells: HEK293s or CHO cells
T5 sequence (Q0P543 19-460): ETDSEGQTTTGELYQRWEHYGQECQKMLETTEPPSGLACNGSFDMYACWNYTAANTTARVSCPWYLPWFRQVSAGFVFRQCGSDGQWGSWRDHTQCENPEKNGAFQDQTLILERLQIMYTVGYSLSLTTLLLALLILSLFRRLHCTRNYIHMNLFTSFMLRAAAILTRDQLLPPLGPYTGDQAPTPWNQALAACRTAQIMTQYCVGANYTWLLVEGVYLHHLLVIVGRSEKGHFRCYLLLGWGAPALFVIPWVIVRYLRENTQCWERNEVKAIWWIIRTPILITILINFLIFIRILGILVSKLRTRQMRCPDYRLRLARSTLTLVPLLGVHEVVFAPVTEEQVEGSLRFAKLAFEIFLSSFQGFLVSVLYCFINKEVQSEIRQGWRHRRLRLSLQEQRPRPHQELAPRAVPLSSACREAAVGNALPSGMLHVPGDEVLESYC
Experimental: as §1, §2, §3, §4, §5, §6, §7, §8

[6] = target: T6, rat GLP-1 receptor (rGLP-1r) (Rattus norvegicus, UniProt P32301); assay: BSA-cAMP assay, cells expressing rat GLP-1 receptor; conditions: Batch 1; BSA-cAMP assay; read-out: rGLP1r cAMP activity EC50
T6 construct: expressed in transfected cells; host or cells: HEK293s or CHO cells
T6 sequence (P32301 22-463): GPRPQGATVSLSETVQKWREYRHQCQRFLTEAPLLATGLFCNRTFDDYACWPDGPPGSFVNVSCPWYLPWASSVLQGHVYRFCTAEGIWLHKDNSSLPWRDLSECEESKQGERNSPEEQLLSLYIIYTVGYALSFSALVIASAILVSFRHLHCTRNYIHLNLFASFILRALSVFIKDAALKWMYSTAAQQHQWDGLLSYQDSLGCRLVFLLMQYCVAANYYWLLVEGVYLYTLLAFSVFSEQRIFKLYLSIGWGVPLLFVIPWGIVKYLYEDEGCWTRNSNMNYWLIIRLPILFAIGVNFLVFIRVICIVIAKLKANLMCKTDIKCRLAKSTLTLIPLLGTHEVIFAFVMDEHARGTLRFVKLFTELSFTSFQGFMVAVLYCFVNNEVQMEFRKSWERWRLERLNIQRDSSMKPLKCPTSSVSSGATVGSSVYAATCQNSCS
Experimental: as §1, §2, §3, §4, §5, §6, §7, §8

rat GIP receptor (rGIPr) = target: T7, rat GIP receptor (rGIPr) (Rattus norvegicus, UniProt P43219); assay: BSA-cAMP assay, cells expressing rat GIP receptor; conditions: Batch 1; BSA-cAMP assay; read-out: rGIPr cAMP activity EC50
T7 construct: expressed in transfected cells; host or cells: HEK293s or CHO cells
T7 sequence (P43219 19-455): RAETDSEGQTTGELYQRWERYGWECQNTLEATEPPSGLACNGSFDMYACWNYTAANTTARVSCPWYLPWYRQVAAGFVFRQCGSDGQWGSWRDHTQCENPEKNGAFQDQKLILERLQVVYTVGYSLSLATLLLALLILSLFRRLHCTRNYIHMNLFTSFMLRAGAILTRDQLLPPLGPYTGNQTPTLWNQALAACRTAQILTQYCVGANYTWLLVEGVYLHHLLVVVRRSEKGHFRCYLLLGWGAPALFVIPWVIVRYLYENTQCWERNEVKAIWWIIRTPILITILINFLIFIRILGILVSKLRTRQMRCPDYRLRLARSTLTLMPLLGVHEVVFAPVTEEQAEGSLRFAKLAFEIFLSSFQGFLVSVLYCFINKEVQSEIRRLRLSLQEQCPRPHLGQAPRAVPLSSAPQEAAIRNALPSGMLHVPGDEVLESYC
Experimental: as §1, §2, §3, §4, §5, §6, §7, §8

[7] = Batch 1, read-out: hGCGr cAMP activity EC50

T1 sequence (P43220 24-463): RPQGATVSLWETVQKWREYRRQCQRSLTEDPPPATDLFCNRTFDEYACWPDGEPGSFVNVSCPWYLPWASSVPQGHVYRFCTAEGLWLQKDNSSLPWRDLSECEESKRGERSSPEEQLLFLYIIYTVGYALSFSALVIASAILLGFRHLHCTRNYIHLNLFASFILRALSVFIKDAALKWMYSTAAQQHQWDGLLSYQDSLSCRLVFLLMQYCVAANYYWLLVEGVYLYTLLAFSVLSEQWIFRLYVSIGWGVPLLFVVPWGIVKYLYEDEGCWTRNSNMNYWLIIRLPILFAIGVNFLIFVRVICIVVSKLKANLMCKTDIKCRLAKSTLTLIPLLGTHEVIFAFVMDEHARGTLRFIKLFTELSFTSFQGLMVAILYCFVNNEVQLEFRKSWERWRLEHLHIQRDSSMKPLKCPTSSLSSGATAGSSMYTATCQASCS
T3 sequence (P47871 26-477): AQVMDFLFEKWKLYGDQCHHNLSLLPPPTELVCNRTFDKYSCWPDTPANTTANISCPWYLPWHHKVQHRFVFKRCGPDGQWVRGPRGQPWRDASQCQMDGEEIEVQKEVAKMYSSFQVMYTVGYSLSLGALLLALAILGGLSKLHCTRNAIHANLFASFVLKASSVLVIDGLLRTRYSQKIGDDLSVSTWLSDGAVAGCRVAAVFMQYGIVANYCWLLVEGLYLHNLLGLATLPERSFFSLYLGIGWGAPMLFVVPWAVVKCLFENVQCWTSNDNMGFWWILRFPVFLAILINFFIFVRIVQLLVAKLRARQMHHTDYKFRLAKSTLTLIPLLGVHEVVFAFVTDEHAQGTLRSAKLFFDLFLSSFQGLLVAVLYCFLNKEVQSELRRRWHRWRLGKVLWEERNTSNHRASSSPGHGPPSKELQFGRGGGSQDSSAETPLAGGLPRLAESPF

Substance | pEC50 ([1]; Batch 1) | pEC50 [2] | pEC50 [3, 7] | pEC50 [4] | pEC50 [5] | pEC50 [6] | pEC50 (rat GIP receptor (rGIPr)) | pEC50 ([1]; Batch 2) | pEC50 ([3]; Batch 2, read-out: hGCGr cAMP activity EC50)
IP302 (YSEGTFISDYSIALAAAAQQDFVNWLLAGGGGGGGSGGGGSGGGGSGGGGSATHTCPPC) | 7.59 | 10.74 | 5.92 | 7.03 | 10.08 | 8.15 | 10.26 | – | –
IP407: Fc fusion, IgG1-TM, SEQ ID NO:384; agonist peptide YSEGTFTSDYSKLLEEEAIRLFIEWLLAGG (YSEGTFTSDYSKLLEEEAIRLFIEWLLAGGGGGGSGGGGSGGGGSGGGGSATHTCPPC) | 9.60 | – | < 6.79 | – | 8.64 | – | – | – | –
IP413: Fc fusion, IgG1-TM, SEQ ID NO:388; agonist peptide YSEGTFTSDYSKLLEEEASRLFIEWLLAGG (YSEGTFTSDYSKLLEEEASRLFIEWLLAGGGGGGSGGGGSGGGGSGGGGSATHTCPPC) | 9.72 | – | 8.12 | 8.05 | 8.43 | 10.32 | < 6.95 | – | –

Results, then the substance that gave them:

pEC50 ([1]; Batch 1) | pEC50 [2] | pEC50 [3, 7] | pEC50 [4] | pEC50 [5] | pEC50 [6] | pEC50 (rat GIP receptor (rGIPr)) | pEC50 ([1]; Batch 2) | pEC50 ([3]; Batch 2, read-out: hGCGr cAMP activity EC50) | Substance
< 5.44 | 10.68 | 7.28 | < 5.44 | 6.68 | 7.72 | 9.96 | – | – | IP299: Fc fusion, IgG1-TM(ΔK), SEQ ID NO:351; agonist peptide YSEGTFISDYSKLLEEEAVRDFVEWLKAGG (YSEGTFISDYSKLLEEEAVRDFVEWLKAGGGGGGGSGGGGSGGGGSGGGGSATHTCPPC)
– | – | – | – | – | – | – | 6.77 | < 6.35 | IP319 (YSEGTFTSDYSKLLEAAAAAAFAAWLAAAAGGGGGSGGGGSGGGGSGGGGSACPPC)
7.70 | 9.00 | < 5.49 | – | – | – | – | – | – | IP353 (YSEGTFTSDYAAAAEAAAAAAFAAWLAKAAGGGGGSGGGGSGGGGSGGGGSACPPC)
10.09 | – | 7.68 | – | 8.59 | – | – | – | – | IP420: Fc fusion, IgG1-TM, SEQ ID NO:391; agonist peptide YSEGTFTSDYSKLLEEEATRLFIEWLLAGG (YSEGTFTSDYSKLLEEEATRLFIEWLLAGGGGGGSGGGGSGGGGSGGGGSATHTCPPC)
